Consider 23 sequences from the supplement of paper PMC9732359.

± gives the uncertainty stated by the source.

The nature of this data set: protein stability index of a GFP-peptide fusion (yeast GPS) (PSI 1-4); higher = more stable; sorted into four equal gates, so the index is relative within each strain. A digest of the protocol: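 Tiled 17-residue peptides from yeast proteins were fused downstream of GFP on a plasmid that also expresses Cherry, and the pooled library was carried in yeast. Mid-log cultures grown in leucine-free medium were sorted into four equal gates by GFP/Cherry fluorescence ratio. Plasmids from each gate were PCR-amplified and Illumina-sequenced, and reads were assigned to strains by barcodes. Each peptide's protein stability index is the sum, over gates, of the gate's read frequency multiplied by its gate number.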

For KTNFQDVILDYQTKKFY [REC8], the protein stability index (doa10∆) is 1.62 ± 0.072, the protein stability index (pdr5∆) worked out at 1.59 ± 0.051, the protein stability index (san1∆) is 1.16 ± 0.096 and the protein stability index (ubr1∆) was found to be 1.24 ± 0.039.
The matching figures for VKSLRQGKSKLIIIAAN [RPL30]: 2.03 ± 0.11, 1.4 ± 0.11, 1.62 ± 0.22 and 1.96 ± 0.084.
The matching figures for DDDAVRREVQIQLQEFL [NSL1]: 3.28 ± 0.093, 3.27 ± 0.1, 3.36 ± 0.073 and 3.45 ± 0.089.
Regarding LLIRKLPFQRLVREIAQ [HHT1], the protein stability index by setting is: (doa10∆) 1.29 ± 0.085; (pdr5∆) 1.48 ± 0.094; (san1∆) 1.44 ± 0.16; (ubr1∆) 1.73 ± 0.097.
For LQNCCIIDVGTHHTDII [ARP9], the protein stability index (doa10∆) was 1.43 ± 0.11, the protein stability index (pdr5∆) is 1.9 ± 0.07, the protein stability index (san1∆) was determined as 1.51 ± 0.15 and the protein stability index (ubr1∆) came out at 2.28 ± 0.066.
The matching figures for DNEVQRTMLELITQLDG [RPT1]: 2.55 ± 0.12, 3.21 ± 0.12, 2.79 ± 0.14 and 2.67 ± 0.15.
On the same counts, the results for NTKVPVDIVNQWFLQYQ [YML103C/NUP188] are 1.78 ± 0.044, 2.15 ± 0.038, 1.85 ± 0.058 and 2.18 ± 0.034.
On the same counts, the results for NTVMLQGIFKNSSNYFG [AAR2] are 2.21 ± 0.15, 1.29 ± 0.094, 2.15 ± 0.14 and 1.46 ± 0.2.
As to FKMNEIVPLHSPFLMGH [SEC65], the protein stability index runs as follows: (doa10∆) 2.71 ± 0.067; (pdr5∆) 2.59 ± 0.072; (san1∆) 2.59 ± 0.082; (ubr1∆) 2.62 ± 0.057.
On to NNNSSNEKEQLSFINPK [SEC65], for which the protein stability index reads like this: (doa10∆) 2.83 ± 0.045; (pdr5∆) 3.11 ± 0.052; (san1∆) 2.8 ± 0.034; (ubr1∆) 2.92 ± 0.036.
Regarding LEYNVALNDVYLDADVA [YML031W/NDC1], the protein stability index is, setting by setting: (doa10∆) 3.32 ± 0.13; (pdr5∆) 3.33 ± 0.13; (san1∆) 3.05 ± 0.12.
Turning to NENRNTGAGVDVNTNAN [SNF11], the protein stability index runs as follows: (doa10∆) 3.11 ± 0.062; (pdr5∆) 3.42 ± 0.06; (san1∆) 3.15 ± 0.039; (ubr1∆) 3.36 ± 0.054.
As for SSEQDYSTLKELLEYSD [YCG1], the protein stability index amounted to 2.92 ± 0.082 (doa10∆), 2.75 ± 0.088 (pdr5∆), 3.15 ± 0.068 (san1∆) and 3.15 ± 0.086 (ubr1∆).
The matching figures for FQLLEPLSTYNKNGNAV [PGD1]: 2.81 ± 0.058, 2.93 ± 0.057, 2.77 ± 0.05 and 2.74 ± 0.036.
The matching figures for FQNSKSASLFKQRKNPR [RPL24A]: 2.11 ± 0.097, 2.44 ± 0.077, 2.49 ± 0.1 and 1.85 ± 0.053.
VNYLISNTMYSVRLFSF [YJL039C/NUP192] gave a protein stability index (doa10∆) of 1.43 ± 0.046, a protein stability index (pdr5∆) of 1.42 ± 0.058, a protein stability index (san1∆) of 1.34 ± 0.088 and a protein stability index (ubr1∆) of 1.6 ± 0.056.
KFSDLKFILQILQILNL [YML103C/NUP188] yielded a protein stability index (doa10∆) of 3.05 ± 0.15, a protein stability index (pdr5∆) of 2.12 ± 0.29 and a protein stability index (san1∆) of 3.48 ± 0.13.
On to KSSILTVLQKNSLLLDS [YML103C/NUP188], for which the protein stability index runs as follows: (doa10∆) 1.84 ± 0.056; (pdr5∆) 1.71 ± 0.08; (san1∆) 1.56 ± 0.075; (ubr1∆) 2.36 ± 0.085.
On the same counts, the results for VKTKTIELIDYDKLPAG [RET1] are 2.98 ± 0.12, 3.42 ± 0.13, 2.67 ± 0.19 and 2.95 ± 0.082.
On the same counts, the results for ELRFPSPTPIQRITIPN [PRP28] are 2.02 ± 0.093, 2.19 ± 0.071, 1.85 ± 0.081 and 2.06 ± 0.058.
Sequence STDKLVQCHGSFATATC [SIR2] registered a protein stability index (doa10∆) of 2.72 ± 0.066, a protein stability index (pdr5∆) of 2.67 ± 0.048, a protein stability index (san1∆) of 2.48 ± 0.063 and a protein stability index (ubr1∆) of 2.76 ± 0.037.
The matching figures for EELINAAKGSSTSYAIK [RPS5]: 2.66 ± 0.077, 1.88 ± 0.051, 1.43 ± 0.068 and 1.76 ± 0.044.
Turning to QLYFQKNGAQDLVLQIL [RRI2], the protein stability index runs as follows: (doa10∆) 2.6 ± 0.12; (pdr5∆) 2.81 ± 0.12; (san1∆) 2.32 ± 0.097; (ubr1∆) 2.62 ± 0.048.
